Reference: the supplement of paper PMC9170038

Tested on: MS2 coat protein
Assay: apparent KD of MS2 coat protein; designed switch direction (-1 OFF switch, 1 ON switch): 1; higher = weaker reporter binding
How it was run: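 Stalled E. coli RNA polymerase transcribed designed RNA switches on Illumina chips, which were then titrated with SNAP-549-labelled MS2 coat protein, doubling from 0.7 or 1.5 nM to 3 µM. Steps lasted from 0.8–1.5 h at the lowest concentration to 10–20 min at the highest. The apparent KD is each design's median over clusters of curve-fitted normalised fluorescence.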

[1] = Eterna round: R95, input ligand: FMN 200 uM
[2] = Eterna round: R95, input ligand: microRNA oligo, concentration not stated
[3] = Eterna round: R95, input ligand: none
[4] = input ligand: microRNA oligo, concentration not stated

Sequence	apparent KD of MS2 coat protein [1] [nM]	apparent KD of MS2 coat protein [2] [nM]	apparent KD of MS2 coat protein [3] [nM]	apparent KD of MS2 coat protein (input ligand: FMN 200 uM) [nM]	apparent KD of MS2 coat protein [4] [nM]	apparent KD of MS2 coat protein (input ligand: none) [nM]
AGGUAACAUGAGGAUCACCCAUGUAAGGUGAACGUAGGAUAUCGAAGAGGUAGGGUAGGACGAGAAGGACGAGGAA [JR_SS1_Sub092] (puzzle: Same State 1)	347	346	481	–	–	–
GAGGGACAGACCAACAUGAGGAUCACCCAUGUCCUCGCAGGUCAGGAUAUUAUGAGGAUCACCCGUGAGAAGGGACGGUGAACC (Eterna round: R96, puzzle: Same State NG 3)	–	–	–	606	468	488
GGAGCCGGCACUGAGGAUAUUCGUAUUAAAACAUGAGGAUCACCCAUGUAGGCCAGAAGGCCUUGGGAGAAGGCAGGUCGGCCCG [Bibimoar - 5] (puzzle: Same State 2)	12.5	33.9	46.4	–	–	–
AAAGCAAUGGUACAGGAUAUGUACGGUCGUACAUGAGGAUCACCCAUGUCGCUGGAAAGGUAGAUACAGAAGGGUGCCCAUGCGU [Riintile] (puzzle: Same State 2)	34.4	161	210	–	–	–
UUUUUUUUUUAGAGACAAGCUUUUUGAUCACAUGAGGAUCACCCAUGUCUCGUCUUAUUUUUUUUUUUUUUUUUUUU [BA Sensor hsa-mir-208a - 2 - 4] (puzzle: Sensor for hsa-mir-208a)	37.3	17.5	103	–	–	–
GUAGCAUACCGAGGAUAUUCAUAUUACAUGAGGAUCACCCAUGUUAAAGAUAGGCGAAAGCCUUGGGAGAAGGCGGAAUGCUAC [Xeonanis - 20 Mod68] (Eterna round: R96, puzzle: Same State NG 2)	–	–	–	8.61	10.7	11.3
GUAAAACAUGAGGAUCACCCAUGUAAUAAUAUGGGAGGAUAUCAGAAUGUAUGUAUGUAAUGAGAAGGCCUAAAUG [Mat - Same State 1 - Mod of Eli - D74] (puzzle: Same State 1)	101	1610	1120	–	–	–
AGUAUUAAUGCAGGAUAUGAUUAACAUGAGGAUCACCCAUGUGGUGUUGUGAGUAAGGAGAGUGAUCAGAAGGGCAUUUUUUUU [JMF's solution 38] (Eterna round: R96, puzzle: Same State NG 2)	–	–	–	414	175	502
GCGAGCGUACUUGCUACAUGAGGAUCACCCAUGUUCAUUGGACAGGAUAUGGUACCGUUUCGGUACCAGAAGGGUUCAUCAUGU [JL SSNG3 3.73] (Eterna round: R96, puzzle: Same State NG 3)	–	–	–	1190	26.6	585
UGUUGUAUUACAGGAUAUCUAUUGUUUUUAUGUAGAGAAGGGUAUUCACAUGAGGAUCACCCAUGUAUAUACGAGGAAGUUGUG [JMF's solution 85] (Eterna round: R96, puzzle: Same State NG 1)	–	–	–	53.2	36.6	48.8
ACAAGCUUUUCUGUAUUGAAAGGUGGGAUACAUGAGGAUCACCCAUGUUUUUUUGUUUAUUUUUUUCCUCGUCUUAU [JR_SHM208A_Sub088] (puzzle: Sensor for hsa-mir-208a)	34.3	37.8	34.3	–	–	–
GGGAAGAGGGACAAGGAUAUGUCAAAAGAGACAUGAGGAUCACCCAUGUGGAGGUUGGAGCAGAGACAGAAGGUGUACGGAGAGA [JR_SS2_Sub009] (puzzle: Same State 2)	69.7	63	152	–	–	–
GCUGCAAGGGCAGGAUAUGGGUUCAGAGCGGAAGUGCGCUUUGAUACAUGAGGAUCACCCAUGUCCCAGAAGGGCCCAAACGGC [Beanti] (Eterna round: R96, puzzle: Same State NG 2)	–	–	–	17.3	99.3	123
CUGAGCAAUCUAGGAUAUCACGUCGAAUAGACGUGAGAAGGAGAUCAUAACAUGAGGAUCACCCAUGUAUUACAUGAAGCUCAG [SSNG1/7-A1] (Eterna round: R96, puzzle: Same State NG 1)	–	–	–	13.4	11.6	17.9
GGUCCAGCCUGAGCUGGACCACAGCAUGUACAUGAGGAUCACCCAUGUCAUGUACAAGCUUUUUGUUUAAAAUAAAA [Sensorship 13 - Jieux - Sensor for hsa-mir-208a] (puzzle: Sensor for hsa-mir-208a)	261	30.5	209	–	–	–
GAGGGACGGACGAACAUGAGGAUCACCCAUGUCCUCGGAGGUCAGGAUAUCCGGAGGUAGCCGAAGGAGAAGGGACGGUGAACC [AK SSNG3-V2-31.1] (Eterna round: R96, puzzle: Same State NG 3)	–	–	–	104	51.5	85.7

Sequence	apparent KD of MS2 coat protein [1] [nM]	apparent KD of MS2 coat protein [2] [nM]	apparent KD of MS2 coat protein [3] [nM]	apparent KD of MS2 coat protein (input ligand: FMN 200 uM) [nM]	apparent KD of MS2 coat protein [4] [nM]	apparent KD of MS2 coat protein (input ligand: none) [nM]
GCUAGAAUAAAAGCCAACAUGAGGAUCACCCAUGUAUGUUGGCAGGAUAUCGUAUGCAAAGCAUACGAGAAGGGCCAUACUAGC [Mat - Same State NG 3 - JL Mod - D24] (Eterna round: R96, puzzle: Same State NG 3)	–	–	–	49.8	96.7	121
CCCUUCGGCACAUGAGGAUCACCCAUGUUUUAGUGGAAGAGGUAGGAUAUGGCUGGGAGCAGAAGCCAGAAGGACCAAAUAAAU [Attiatan] (Eterna round: R96, puzzle: Same State NG 3)	–	–	–	22.1	19	9.8
AAUUCAAACAGAGGAUAUUGUUUAUCUCUAUUGCAAGAAGGCUGAUCUUACUACUUACUUAUGAAACAUGAGGAUCACCCAUGU [JR_SSNG1_Sub019] (Eterna round: R96, puzzle: Same State NG 1)	–	–	–	–	29.3	–
GGAGCCGGCCUAGGAUAUUUCAUUAAUAAACAUGAGGAUCACCCAUGUAGGCCAGAAGGCCUUGGGAAGAAGGAGGUCGGCUCC [Loop Effect - U24,U27] (Eterna round: R96, puzzle: Same State NG 2)	–	–	–	21.2	24.5	37.7
AAGGGAUGAGCGUAGGAUAUAGGAGAAGUGACAUGAGGAUCACCCAUGUAAAAGGAGGGAUGAGACUAGAAGGACGAGGUAGGAG [JR_SS2_Sub059] (Eterna round: R96, puzzle: Same State 2)	–	–	–	82.7	55.4	78.3
UGGCUCAGAGCAGGAUAUAUGUGGUCACAUGAGGAUCACCCAUGUCUCGAGCUUCGGCUCGAGGCAUAGAAGGGCUCUGAGCCU [SSNG2/5-B3] (Eterna round: R96, puzzle: Same State NG 2)	–	–	–	704	21.4	85.9
UAUCUCAUGUAAGGAUAUGCAGCCGUUUCGGCUGCAGAAGGUACUAUAAUACAUGAGGAUCACCCAUGUCUCUCGCAUUGCGAG [JL SSNG1 1.49] (Eterna round: R96, puzzle: Same State NG 1)	–	–	–	186	150	293
ACAAGCUUUUCUGUAUUGAAAGGUGGGAUACAUGAGGAUCACCCAUGUUUUUUUGUUUAUUUUUUUCCUCGUCUUAU [JR_SHM208A_Sub088] (Eterna round: R96, puzzle: Sensor for hsa-mir-208a)	–	–	–	46	36.5	37.2
AGAAAACAUGAGGAUCACCCAUGUAUAGUGAAUACAGGAUAUCAUCGACGGAAUAGUUGAUGAGAAGGGUGAUCGC [Gebiatan] (puzzle: Same State 1)	13.2	14.4	10.4	–	–	–
GGUGAGAGAGUCAAGGAUAUGAAAGGAGAGACAUGAGGAUCACCCAUGUAAGAGAGAGAGGAGAGUUAGAAGGUGAAGAGAGUGG [Altered State 2-24 - Jieux - Same State 2] (puzzle: Same State 2)	42.7	39.5	64.7	–	–	–
CAAGAAAACGCAGGAUAUACCCGGGCUACCCGGGUAGAAGGGUGACACAUGAGGAUCACCCAUGUACAUAGAAUUAGCUAUGGA [Soberaa] (Eterna round: R96, puzzle: Same State NG 1)	–	–	–	284	15.9	26.7
AUUAUUUAUGCAGGAUAUGAUUAACAUGAGGAUCACCCAUGUGGUGUUGUGAGUAAGGAGAGUGAUCAGAAGGGCAUUUUUUUA [JMF's solution 56] (Eterna round: R96, puzzle: Same State NG 2)	–	–	–	476	410	302
UUUAUUUAUGCAGGAUAUGAUUAACAUGAGGAUCACCCAUGUGGUGUUGUGAGUAAGGAGAGUGAUCAGAAGGGCAUUUUUUUU [JMF's solution 76] (Eterna round: R96, puzzle: Same State NG 2)	–	–	–	610	396	487
CGGCGCUGUUGAGAGGAUAUGCGGUGAUGGACAUGAGGAUCACCCAUGUUAGCGAUAGCAUUACGGUAGAAGGCUCUACAGCUGU [Soteed Omei mod 11] (puzzle: Same State 2)	–	21.7	–	–	–	–
GCCAACGCAUGAGGAUAUGGCACCUUAUUGGUGCCAGAAGGUAUGUGUAUUCACAUGAGGAUCACCCAUGUAUUAUAGUUGGCA [Fiskers NG1ss - 17] (Eterna round: R96, puzzle: Same State NG 1)	–	–	–	53.7	146	183
